Reference: a protein production outcome set (Wang et al. 2014)

Test: label from the status in PepcDB records

Sequence | protein production
VTTVGFDVAARLGTLLTAMVTPFSGDGSLDTATAARLANHLVDQGCDGLVVSGTTGESPTTTDGEKIELLRAVLEAVGDRARVIAGAGTYDTAHSIRLAKACAAEGAHGLLVVTPYYSKPPQRGLQAHFTAVADATELPMLLYDIPGRSAVPIEPDTIRALASHPNIVGVKDAKADLHSGAQIMADTGLAYYSGDDALNLPWLAMGATGFISVIAHLAAGQLRELLSAFGSGDIATARKINIAVAPLCNAMSRLGGVTLSKAGLRLQGIDVGDPRLPQVAATPEQIDALAADMRAASVLR | not failed
EHNYHPNAVAAGLRAGRTRSIGLVIPDLENTSYTRIANYLERQARQRGYQLLIACSEDQPDNEMRCIEHLLQRQVDAIIVSTSLPPEHPFYQRWANDPFPIVALDRALDREHFTSVVGADQDDAEMLAEELRKFPAETVLYLGALPELSVSFLREQGFRTAWKDDPREVHFLYANSYEREAAAQLFEKWLETHPMPQALFTTSFALLQGVMDVTLRRDGKLPSDLAIATFGDNELLDFLQCPVLAVAQRHRDVAERVLEIVLASLDEPRKPKPGLTRIKRNLYRRGVLSRS | not failed
AHHHHHHGSVVKRTMTKKFLEEAFAGESMAHMRYLIFAEKAEQEGFPNIAKLFRAIAYAEFVHAKNHFIALGKLGKTPENLQMGIEGETFEVEEMYPVYNKAAEFQGEKEAVRTTHYALEAEKIHAELYRKAKEKAEKGEDIEIKKVYICPICGYTAVDEAPEYCPVCGAPKEKFVVFE | not failed
MYEEWKIVKREAPILGNDQLIENIWKMKREDSPYDIISLHKVNLIGGGNDAVLILPGTWSSGEQLVTISWNGVHYTIPDYRKSIVLYLARNGFNVYTIDYRTHYVPPFLKDRQLSFTANWGWSTWISDIKEVVSFIKRDSGQERIYLAGESFGGIAALNYSSLYWKNDIKGLILLDGGPTKHGIRPKFYTPEVNSIEEMEAKGIYVIPSRGGPNNPIWSYALANPDMPSPDPKYKSISDFLMDSLYVTGSANPYDYPYSKKEDMFPILASFDPYWPYRLSLERDLKFDYEGILVPTIAFVSERFGIQIFDSKILPSNSEIILLKGYGHLDVYTGENSEKDVNSVVLKWLSQQR | not failed
MTLTSSQKPFRLLVGDREVQESDLAALLQKHQLLPELVKRMRFAQVIEGIEVQPDVLEQECQAWCKQNGIAPQQLPQLLAQQQISLEQWMSSVENRLRLRLFQEREFSHRAENRFLKRKSQLDLVTYSLLRHSDGHLIQELYQQLLHGEATFEDLATQFSQGHEAKTAGKLGPVPLSQPHPALAEVLRTAQPGQILPPRNLESYWLIIRLDQLQPVAFNETIRRQMLQELFDEWLGAEVQQTLNTL | failed
MQLSAPPYEERLTAPRTWWLMCFLVGVSMALILLPFGTLPLLGGLVGGTAVAAVVASSYGSIRIRVVGDSLIAGEAKIPVAALGEAEIMDQEEARAWRTYKANPRAFMLLRSYIPTALRVEVTDPQDPTPYLYLSTREPERLAAALKAARTEA | failed
MFNNDRLLVQILLLALFGACLWVMAPFWSALVWGAVLAFASWPLMRLLTRWFKGRESLAALVMCLCWMLLVAAPLVWLGFNLADHVRDATALIKDIQVDGLPDPPQWLAGIPLVGERLVGLWTTIDQQGAAFMTTVKPYLGEVGNWLLARSAQIGGGILELTLSIVFAFFFYRDGPRLAAFVLSLLERLIGDRAQYYLDLVAGTVQRVVNGVIGTAAAQALLALIGFLIAGIPGALVLGILTFLFSLIPMGPPLVWLPATAWLVWQGEYGMAIFLGIWGMFVISGVDNVLKPYLISRGGNLPLVIVLLGVFGGLLAFGFIGLFIGPTLLAVAYSLLTDWVGSERARNPR | failed
MNISIFKEKSLKWQLLRRMFLLLICFLIILEIFQYFFLRHYICKDKEMLLESRINNVAHLMTTIDSEASLKKNSGYLIKKSLYFDTTSSVIDKNGNVLLFHIKDKHPTSPPIISASEYKAIMKREGNLEGYTITKNKCGEPQITIWRKIGNLNSPLGLIQLTTPYHSAAQFLYKQIYIYIVACVLILILSILIGGTLIKHTLKPLYRIAHTLNNLTVGDLNKRLSENNNQVEIDHLATAFNNMFSRIEISFNREKELKKKMQQFISDASHELRTPLTSIRGFVEVLLIGSYKDEKKLKLALNTILIESERLTELVNNLLTLTRLDRSTHTEMTKQNMSDIIEEIYPQLKILAKNRQVNLNLYDNNAYFLGNKNQIKQVIFNIVQNSINYTDKETGIITLSLSIEDTLFILKISDNGIGIASKDLPHIFDRFFRSETHRSRESGGYGLGLSIAKSIIQSHGGEISTKSIINQGTSFYIKLKRI | failed
MDPSTLMILAIVAVAIIVLAVFFTFVPVMLWISALAAGVKISIFTLVGMRLRRVIPNRVVNPLIKAHKAGLNVGTNQLESHYLAGGNVDRVVNALIAAQRANIELTFERCAAIDLAGRDVLEAVQMSVNPKVIETPFIAGVAMDGIEVKAKARITVRANIERLVGGAGEETIVARVGEGIVSTIGSSDNHKKVLENPDMISQTVLGKGLDSGTAFEILSIDIADVDIGKNIGAILQTDQAEADKNIAQAKAEERRAMAVAQEQEMRARVEEMRAKVVEAEAEVPLAMAEALREGNIGVMDYMNIKNIDADTEMRDSFGKLT | failed
LAEKAGIGVWSYEPETQRIDWAPDALALMGVSPEDIATPELFLARLPENHRAEVQAAFVHAARTGEGGTLEYRLRANDGRWFTLRATYRTEARPGSGFALKGVSQNITDVARS | failed
AQRRNEIQVPDLDGYTTLKCDFHMHSVFSDGLVWPTVRVDEAYRDGLDAISLTEHIEYRPHKQDVVSDHNRSFDLCREQAEKLGILLIKGSEITRAMAPGHFNAIFLSDSNPLEQKDYKDAFREAKKQGAFMFWNHPGWDSQQPDTTKWWPEHTALYQEGCMHGIEVANGHLYMPEAIQWCLDKNLTMIGTSDIHQPIQTDYDFEKGEHRTMTFVFAKERSLQGIREALDNRRTAAYFHELLIGREDLLRPFFEKCVKIEEVSRNEQGVTLSITNVTDLVLKLKKTAHDTLLVYFRDMTLKPHTRYTVRIGFKQGIKGGDVNFEVTNFIVAPDKGLKYTISL | not failed
MGHHKAMPYADVAAFIIELRKREAVAATALEFTILTAARSGETLGAKWHEIDWKDKIWTVPAERMKAAREHRVPLSSRTITILKKLAEFGSDENSFVFPGQKPGKPLSVMAMDMVLRRMEVDVTVHGFRSSFRDWCGEVSNFPRDVAEAALAHLEHHHHHH | not failed
MSVQLSEGQTFGPRAINVTRTTLVRYAGASGDFNPIHYSDRAAREAGMDGVIAHGMWTMGAALGTVIDWVGGPERVVSQRARFTRPVQVPDTEGGTAIEVAATVRKVSEEAATLAVDVKCDGQSVLGRVEVVVRQGEQ | failed
MTEGLAVELAGLRSFSIVMPAYNVVTQRGERIFRETLESIAASCRYLQQHFPYTPEGELILISDGSTDRTCDVAMAGWPNAVPLQLVGLPTNVGIAAARNIGVRLAKGEVIFFCDADDLYRPEHLFLALSVLNQPLPEPYAPAYFGAVRTGVYCRDRLHPYWHKSLEQTLVLNLAVRREVHEFIGGFPEDEVFRQFRYGAEDVAYAYWLHQFCHTARLEQRTVEYRRFPNSVFDRQLKKFQAAPGTVADDLDEGDRQQEAQIRQIMATRLQELQAKAAQGVALEHHHHHH | failed
MSLSEIKHWVFDMDGTLTIAVHDFAAIREALSIPAEDDILTHLAALPADESAAKHAWLLEHERDLAQGSRPAPGAVELVRELAGRGYRLGILTRNARELAHVTLEAIGLADCFAEADVLGRDEAPPKPHPGGLLKLAEAWDVSPSRMVMVGDYRFDLDCGRAAGTRTVLVNLPDNPWPELTDWHARDCAQLRDLLSA | not failed
MANIDLHFHSRTSDGALTPTEVIDRAAARAPALLALTDHDCTGGLAEAAAAAARRGIPFLNGVEVSVSWGRHTVHIVGLGIDPAEPALAAGLKSIREGRLERARQMGASLEAAGIAGCFDGAMRWCDNPEMISRTHFARHLVDSGAVKDMRTVFRKYLTPGKPGYVSHQWASLEDAVGWIVGAGGMAVIAHPGRYDMGRTLIERLILDFQAAGGQGIEVASGSHSLDDMHKFALHADRHGLYASSGSDFHAPGEGGRDVGHTEDLPPICRPIWRELEARILRP | failed
MYIQPLNPTGNVGLTILASLTPIIALLILLAGLRITAWLATLIGSIITILVATFVWGTPIIQVSYAWLIGALVGTWAISWIVFWGLTIYNTLVLTGKFDAFRDWIVRNSTNDARVQAIVLAWSLGALFEGLVGFGYPWAFIAPLLIYLGFDDLKALQVSALANNAPVSFGALGTPIIILASVTGLPLLFISSSVAKVVAILALLPPWILLYLVDKWRGIREAWPIAILGSLSYILGQYPVASFIGPYLPDITGSLISFVILLLFLRVWRPKRVLSLRSVQPNGGESKKYSTKDVIEALSAFIVLIIVVTLWTGPWSPLTKFSLVTLSQTAYSSLLHKNVGVSFAFNPFVAGTSILVSWIIISLVLRASPRIMGEAIKRSFHQYWGGILTGIFVVGLAYVFNFSGMAYSLAWKTSDLGIAFIIVSPLFGWIGCALSGSNTSTNALFGAFQVTTARLTGLPVGLPPALNSVGAELAKPVAPQTASAGVSTTKYVRKEGIVIRKNLPWAIGILIYLILIGVLYAFLAPSLFVH | failed
MYDWFSEMRKKDPVYYDGNIWQVFSYRYTKEVLNNFSKFSSDLTGYHERLEDLRNGKIRFDIPTRYTMLTSDPPLHDELRSMSADIFSPQKLQTLETFIRETTRSLLDSIDPREDDIVKKLAVPLPIIVISKILGLPIEDKEKFKEWSDLVAFRLGKPGEIFELGKKYLELIGYVKDHLNSGTEVVSRVVNSNLSDIEKLGYIILLLIAGNETTTNLISNSVIDFTRFNLWQRIREENLYLKAIEEALRYSPPVMRTVRKTKERVKLGDQTIEEGEYVRVWIASANRDEEVFHDGEKFIPDRNPNPHLSFGSGIHLCLGAPLARLEARIAIEEFSKRFRHIEILDTEKVPNEVLNGYKRLVVRLKSNE | not failed
MRFKAIFVRVTKELLRDKRTLALMLVAPVLVLTLMYFIFDTNNDVNLEVGVDESVPNKIVNALPSDKVKIKEYDSPSSIKKTIVNSDLDAYIEKKGDKLDVTYKNENPSNTGTTKQLLGSAIQKNKLQDMAKVINKIPSNIKQGNSAQGEQITLDNHYLYGNSDSTFFDKMFPILIGFFVFFFVFLISGIALLRERTKGTLERLLATSVKRSEIVFGYLAGYGMFAVLQTLIIVFYAIYLLKIDVAGSIWWVLLINILIALSALAMGIFVSTFANSEFQMVQFIPLVVIPQVFFSGIIPLDNVADWVSSIGYIFPLRYAGDALTNIMIKGEGFNNIWFDLSILLVFIIGFTVLNIIGLKRYRKV | not failed
MNIFIAGLNYNMSEAELGELFAEYGEVVSVKIIMDRETGRSKGYGFVEMADDEAGDKAIAALNEVDMDGKTLSVSVARPREERPRRSYGNNGGGGYRGGNNSRGGGYGGSRGDNGYGGGRNRY | failed
MTTDRPLSPPLDHAWIAARIPHSGAMCLLDQVVTWDDTHIRCTTTSHRAPDNPLRAHGRLAAVCGIEYAAQAMAVHGAILGNAQDRPRAGFLASVRSVEAHVERLDTIEAPLTIEAERIGGDGNNVLYRFSVRCGERVLLTGRAAVVLDAAGLGLPDAGALAKANAQAR | failed
MTAEPAATSAPLSGPVAVIGCGWVGWPLARALLVAGAEVRGSATTPEKVAALRAEGVAATRLRLTPDTSPESDELTELLRGAHRLVLTVPPGRGPERERYAEYLSPVAQAAALHGVRQLIFTSSTGVYPNDPHVMTESDALATPDSPSPLLRAEAALAAAGVPLTVLRFAGLYGPGRPPGRFLAGRTEVGEGSAPVNLVHLDDCVGAVQHMLGGDFGGQTFNVCAAAHPLRRDFYPAAARALGLEAPSFAPHEGGGKIIGSEAFRAATGYHFRHDDPLSDLHTLGNGQGA | failed
MSEILRQPSVLLFLTLAVYALAIIVRTRTGNIFCNPVLVSTIVLIAYLKILGIDYAVYHNAAQFIDFRLKPAVVVLAVPLYQNRRKIFNQWLPVIVSQLAGSVTGIVTGMYFAKWLGAEREVVLPLASKSVTNPIAIEITRSIGGIPAITAATVIIAGLVGQIAGYKMLKNTVVMPSSVGMSLGTASHAMGIAASLERSRRMAAYAGMGLTFNGVLTALIAPLLIPVLGF | failed
